Source: the RNAGym collection of RNA variant scans (doi:10.1073/pnas.2313332121)
This sample holds only a part of the variants without activity.

B1: TPR 5TU (parent)
chain: GGAUCUUCUCGAUCUAACAAAAAAGACAAAUCUGCCACAAAGCUUGAGAGCAUCUUCGGAUGCAGAGGCGGCAGCCUUCGGUGGCGCGAUAGCGCCAACGUUCUCAACUAUGACACGCAAAACGCGUGCUCCGUUGAAUGGAGUUUAUCAUG

Variants of: B1
Assay: polymerase ribozyme fitness, log enrichment relative to wild type (log ratio); higher = more active; in vitro selection for triplet polymerase activity
How it was run: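 For each subunit of a heterodimeric triplet polymerase ribozyme, a mutant library was built by PCR and transcribed, then taken through a single in vitro selection round in triplicate. Selection involved annealing to a biotinylated primer, the partner subunit and triplets, incubation frozen at −7 °C, gel excision of extended constructs, capture on streptavidin beads and RT-PCR. Genotypes were retained after Illumina sequencing of inputs and outputs only with ≥10 input reads and ≥1 read in each output. Fitness is defined as the logarithm of a genotype's enrichment relative to wild-type enrichment, using inverse-variance-weighted averages across replicates, with the logarithm taken to base 2.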

| Variant | polymerase ribozyme fitness (log ratio) |
| --- | --- |
| C38U C75A G80U | -4.14 |
| A73U G86U | -4.19 |
| U44A C57G C69G G80C U82A C108A U109G G141C | ≤ -4.2 |
| C85U U135G G141A | -3.54 |
| G88C C93G U102C G124A | ≤ -4.2 |
| A52G G58U A66G G70U G92A G100A C116A U148A | ≤ -4.2 |
| C14A C125A | -1.75 |
| U7A C79G G94C C114A C118G | ≤ -4.2 |
| G58A C75U C96G | 0.314 |
| C8U C96U | -2.69 |
| U61A C96A G126A C131U | -2.54 |
| A47C C93A A107G G140U | ≤ -4.2 |
| G34U U56A | -1.7 |
| A73U C93U | -1.62 |
| U55A C116G | 0.374 |
| C10G C54U G62C G86U U146C | ≤ -4.2 |
| U4C C8A A39G U55A G88U C93U U102G | ≤ -4.2 |
| A41U G83U A150U | -1.02 |
| C38G A41G U55A G83A G143A | -1.78 |
| A52U C96A | -2.92 |
| C51G A73U | -3.44 |

| Variant | polymerase ribozyme fitness (log ratio) |
| --- | --- |
| A73U G83A | -1.97 |
| A49C G62A G94C A122U C132G A142C | ≤ -4.2 |
| C8U A12G A52G A98U | -2.99 |
| C18U C93G | -3.19 |
| C27G A66G C87U U109A A113U | ≤ -4.2 |
| G59A G88U C116G | -3.56 |
| G84A A147C | -0.0528 |
| C38U U61A A106C G141A | -3.01 |
| U104G G141U | 0.973 |
| A17U G59U C93U C114G | -3 |
| U4C G58U C75A A91U U104G U144A C149U | ≤ -4.2 |
| U15G G50C C95A C99U A120U | ≤ -4.2 |
| U56G G84U C85A C99U | ≤ -4.2 |
| G11C C87U | -2.7 |
| G83U C93U C96G U135A | -2.89 |
| A26U C96U A142C | -3.03 |
| C75U C85U U111G A121U G152A | ≤ -4.2 |
| C69A A73C G86A A119C U145A | ≤ -4.2 |
| A21C G25U C96A A97G | -3.82 |
| U7A C14G U45A G50A C57A G71C A110U G112U C125G C132U | ≤ -4.2 |
| A26C C96U G124A | -1.67 |

| Variant | polymerase ribozyme fitness (log ratio) |
| --- | --- |
| U33C G50A | -3.85 |
| U53A G58C A73U C95A | ≤ -4.2 |
| G58U G128U | -3.02 |
| A40U C87A | -3.87 |
| A16G A20C C69G C149G | -4.02 |
| C54U A97C | -0.294 |
| G46A U53A G83A U90A G92A U134A | ≤ -4.2 |
| A47G G84U | -1.59 |
| A3C U45A G67U G71C G80C C95A C103A | ≤ -4.2 |
| C27U G84A A89G | -3.59 |
| A21C C32G G84A G117A U135A | ≤ -4.2 |
| A21U C57U C93U C96A C116U | -1.6 |
| A24U C96U | 0.0587 |
| C95U C123U | 0.509 |
| G84U A137U C149A | ≤ -4.2 |
| A16U U31C C38U C114U | -3.95 |
| C57G G141A | 0.453 |
| C87U U146G | -0.864 |
| U55C A73U A97U U144G | -1.48 |
| A21U C36A | -3.4 |
| A22G C85G | -2.32 |

| Variant | polymerase ribozyme fitness (log ratio) |
| --- | --- |
| A17U A49U C85A A97U | ≤ -4.2 |
| A12U G86A U101G | -0.714 |
| C10A C54A A91C C105A C129A G143C | ≤ -4.2 |
| A21U U56A C96U | -0.871 |
| A37C C95A A97C A121U | -2.71 |
| A28U A29G C75G G81U C85G A106C C129A | ≤ -4.2 |
| C38A U56A G86C | -3.01 |
| A12U U53A U56A A66C A113C | ≤ -4.2 |
| U9A A41U G74A A89G C132U | ≤ -4.2 |
| A28G G140A | -4.13 |
| A150C G152A | -3 |
| G71C U82C | -2.48 |
| C14G A106C C118A C123U | -4.16 |
| G86U C93A G94A | -0.505 |
| U15G A37U U55A U56C C87G C95U A106G G136A U145G | ≤ -4.2 |
| U4G A28G A91G C93U A115U G133A | ≤ -4.2 |
| G59U G94U C105U G124U G143C | -3.65 |
| A60U C93U U151G | ≤ -4.2 |
| G65C A66C G81A C85G A121G | -4.16 |
| C57U C95U | -1.55 |
